This note sets out measurements from PMC7299343, “Two forms of Opa1 cooperate to complete fusion of the mitochondrial inner-membrane” (eLife, 2020).

Changes are numbered by the printed parent chain. Numbers in names are those of the source.

Sequences and labels used below:
B1: short form of human Opa1 (s-Opa1, S1 form), wild type (natural protein, UniProt O60313-1 195-960, looked up)
chain: ATDRGSESDKHFRKVSDKEKIDQLQEELLHTQLKYQRILERLEKENKELRKLVLQKDDKGIHHRKLKKSLIDMYSEVLDVLSDYDASYNTQDHLPRVVVVGDQSAGKTSVLEMIAQARIFPRGSGEMMTRSPVKVTLSEGPHHVALFKDSSREFDLTKEEDLAALRHEIELRMRKNVKEGCTVSPETISLNVKGPGLQRMVLVDLPGVINTVTSGMAPDTKETIFSISKAYMQNPNAIILCIQDGSVDAERSIVTDLVSQMDPHGRRTIFVLTKVDLAEKNVASPSRIQQIIEGKLFPMKALGYFAVVTGKGNSSESIEAIREYEEEFFQNSKLLKTSMLKAHQVTTRNLSLAVSDCFWKMVRESVEQQADSFKATRFNLETEWKNNYPRLRELDRNELFEKAKNEILDEVISLSQVTPKHWEEILQQSLWERVSTHVIENIYLPAAQTMNSGTFNTTVDIKLKQWTDKQLPNKAVEVAWETLQEEFSRFMTEPKGKEHDDIFDKLKEAVKEESIKRHKWNDFAEDSLRVIQHNALEDRSISDKQQWDAAIYFMEEALQARLKDTENAIENMVGPDWKKRWLYWKNRTQEQCVHNETKNELEKMLKCNEEHPAYLASDEITTVRKNLESRGVEVDPSLIKDTWHQVYRRHFLKTALNHCNLCRRGFYYYQRHFVDSELECNDVVLFWRIQRMLAITANTLRQQLTNTEVRRLEKNVKEVLEDFAEDGEKKIKLLTGKRVQLAEDLKKVREIQEKLDAFIEALHQEK
notes: OPA1, human, short form corresponding to the S1 form that results from Oma1 cleavage, residues 195-960 of UniProt O60313-1, codon optimized for Pichia pastoris; Construct: Twin-Strep-tag, HRV 3C site, (G4S)3 linker at the N-terminus; (G4S)3 linker, TEV site, deca-histidine tag at the C-terminus; His tag said to be cleaved with TEV in all the functional assays; also called WT s-Opa1; …
B2: G300E mutant of s-Opa1 (s1) (natural protein, human, UniProt O60313-1 195-960, looked up)
chain: B1 chain with G106E
notes: OPA1, human, short form (S1), residues 195-960 of UniProt O60313-1, with G300E; same tags and linkers as m2; also called G300E s-Opa1; sOPA1 (G300E); source: Pichia pastoris SMD1163, purified
B3: long form of human Opa1 (l-Opa1), wild type (natural protein, UniProt O60313-1 88-960, looked up)
chain: FWPARLATRLLKLRYLILGSAVGGGYTAKKTFDQWKDMIPDLSEYKWIVPDIVWEIDEYIDFEKIRKALPSSEDLVKLAPDFDKIVESLSLLKDFFTSGSPEETAFRATDRGSESDKHFRKVSDKEKIDQLQEELLHTQLKYQRILERLEKENKELRKLVLQKDDKGIHHRKLKKSLIDMYSEVLDVLSDYDASYNTQDHLPRVVVVGDQSAGKTSVLEMIAQARIFPRGSGEMMTRSPVKVTLSEGPHHVALFKDSSREFDLTKEEDLAALRHEIELRMRKNVKEGCTVSPETISLNVKGPGLQRMVLVDLPGVINTVTSGMAPDTKETIFSISKAYMQNPNAIILCIQDGSVDAERSIVTDLVSQMDPHGRRTIFVLTKVDLAEKNVASPSRIQQIIEGKLFPMKALGYFAVVTGKGNSSESIEAIREYEEEFFQNSKLLKTSMLKAHQVTTRNLSLAVSDCFWKMVRESVEQQADSFKATRFNLETEWKNNYPRLRELDRNELFEKAKNEILDEVISLSQVTPKHWEEILQQSLWERVSTHVIENIYLPAAQTMNSGTFNTTVDIKLKQWTDKQLPNKAVEVAWETLQEEFSRFMTEPKGKEHDDIFDKLKEAVKEESIKRHKWNDFAEDSLRVIQHNALEDRSISDKQQWDAAIYFMEEALQARLKDTENAIENMVGPDWKKRWLYWKNRTQEQCVHNETKNELEKMLKCNEEHPAYLASDEITTVRKNLESRGVEVDPSLIKDTWHQVYRRHFLKTALNHCNLCRRGFYYYQRHFVDSELECNDVVLFWRIQRMLAITANTLRQQLTNTEVRRLEKNVKEVLEDFAEDGEKKIKLLTGKRVQLAEDLKKVREIQEKLDAFIEALHQEK
notes: OPA1, human, long form, residues 88-960 of UniProt O60313-1 (isoform 1), codon optimized for Pichia pastoris; Construct: Twin-Strep-tag, HRV 3C site, (G4S)3 linker at the N-terminus; (G4S)3 linker, TEV site, deca-histidine tag at the C-terminus; also called WT l-Opa1; TwinStrep-lOPA1-H10

Series [1] deals with the molecule itself. Description: native gel or EMSA; Blue native PAGE (BN-PAGE), 3-12% Bis-Tris gradient gels, sample buffer with 0.25% Coomassie G-250 and 1 mM DDM, cathode buffer with 1 mM DDM, 4 °C; mixtures of l-Opa1 and s-Opa1 incubated on ice for 10 min before loading.
Series [2] addresses B3. The series is described as above. The following applies: both partners purified.

As to B1, the binding result in series [1] is recorded as “binds”.

Turning to B2, the binding result in series [2] is “binds”.

In the case of B3, the binding result in series [1] is “binds”.
